Results taken from the DeepSol protein solubility set.

Experiment: soluble on expression in E. coli; label from the status in PepcDB or PDB records

Sequence	soluble on expression in E. coli
GAMSGLADKVIWAVNAGGESHVDVHGIHYRKDPLEGRVGRASDYGMKLPILRSNPEDQVLYQTERYNEDSFGYDIPIKEEGEYVLVLKFAEVYFAQSQQKVFDVRVNGHTVVKDLDIFDRVGHSTAHDEIIPISIKKGKLSVQGEVSTFTGKLSVEFVKGYYDNPKVCALFIMKGTADDVPMLQPHPGLE	soluble
VTDASVHPDELDPEYHHHGGFPEYGPASPGAGFGQFVATMRRLQDLAVAADPGDAVWDEAAERAAALVELLSPFEADEGKAPAGRTPGLPGMGSLLLPPWTVTRYGTDGVEMRGSFSRFHVGGNSAVHGGVLPLLFDHMFGMISHAAGRPISRTAFLHVDYRRITPIDVPLIVRGRVTNTEGRKAFVCAELFDSDETLLAEGNGLMVRLLPGQP	soluble
IHHLPPVKAPLQTKKKIMKHCFLCGKKTGLATSFECRCGNNFCASHRYAEAHGCNYDYKSAGRRYLEEANPV	soluble
MESKSVDTRSIYRELGATLSYNMRLGNGMEIEPWLKAAVRKEFVDDNRVKVNSDGNFVNDLSGRRGIYQAGIKASFSSTLSGHLGVGYSRGAGVESPWNAVVGVNWSF	not soluble
MDLGIKGKKVIVTAASKGIGLAIAKRFLEEGAKVIISSNDESNLMKAYNKLKEIHSENVSYIKADLMNPHEVKSLVHEGYRKLGGLDVLAYVTGSPKPGNLFSLSDKDWMDAFNLLLLSAVVAVREAGQLMQSGGRIILSTSTTLRQPIDNLDLSNVVRLSLAGLIKVASRELGPKGILVNGVMPGWTKTERLLQIIRDRAIREGKSEDEVLKSIVADVPLGRAGEPEEIANVVLFLASNLSTYVTGALIPVDGGSIKGVF	not soluble
KTSILLLLMIATALPSFGGNGNGNGTDSLQATRYVTRATMYGVGYTNVFDTYLSPQEYKGIEFRISRETMRMTTLGDGNVSVQNFFQANLAYTHNRVDNNNTFAGLVNWNYGLHYQFRITDNFKLLAGGMGDFNGGFVYNLRNTNNPASARAYINLDASGMAIWHTKIKNYPLALRYQVNLPVIGVMFSPHYGQSYYEIFTLGHASGVIRFTSLHNQPALRQMLSVDFPIRYTKMRLSYLCDLQQSKLNGIKTHTYSQVFMVGFVHDLFRIRNKNGTPLPPAVRAY	not soluble
MAVASTSTSDGMLTLDLIQEEDPSPEEPTSCAESFRVDLDKSVAQLAGSRRRADSDRIQPSADRASSLSRPWEKTDKGATYTPQAPKKLTPTEKGRCASLEEILSQRDAASARTLQLRAEEPPTPALPNPGQLSRIQDLVARKLEETQELLAEVQGLGDGKRKAKDPPRSPPDSESEQLLLETERLLGEASSNWSQAKRVLQEVRELRDLYRQMDLQTPDSHLRQTTPHSQYRKSLM	soluble
MPAYKYNRVFLIVMDSVGIGEAPDAADFNDEGAHTLGHIAEHMNGLHMPNMAKLGLGLIEDIKGVEKTEHPLAYYGKLQEASNGKDTMTGHWEIMGLYIDKPFKVFPEGFPDELLQELEKRSGRKIIGNKPASGTAILDELGQEHMETGALIVYTSADSVLQIAAHEEVVPLEELYRICETARELTLDPKYMVGRIIARPFVGEPGQFKRTPNRHDYALKPFDRTVMNELKDCGLDVISIGKISDIYDGEGITSSRRTVSNMDGMDKVIDTLGEDFTGLSFANLVDFDALFGHRRDPEGYGRALEEFDARLPEVFGKMREDDLLIITADHGNDPIHHGTDHTREYVPILAYSKKHKKAQMLPLADTFADIGATIADNFQTNKPKYGKSFLSLLQ	not soluble
MAHHHHHHHRSAAGTIWEFDGGACGARTALVKVDRVDRRYQDLVTRGFNGRFRGRPDVVYVVHTADQVVDAVNQAMAAGQRIAVRSGGHCFEGFVDDPAVRAVIDMSQMRQVFYDSGKRAFAVEPGATLGETYRALYLDWGVTIPAGVCPQVGVGGHVLGGGYGPLSRRDGVVADHLYAVEVVVVDASGRARKVVATSAADDPNRELWWAHTGGGGGNFGIVTRYWFRTPGATGTDPSQLLPKAPTSTLRHIVTWDWSALTEEAFTRIIDNHGAWHQSNSAAGTPYASMHSVFYLNSRAAGQILLDIQIDGGLDGAEALLNDFVAAVNEGTGVEPAVQRSTEPWLRATLANKFDTGGFDRTKSKGAYLRKPWTAAQAATLYRHLSADSQVWGEVSLYSYGGKVNSVPETATATAQRDSIIKVWMSATWMDPAHDDANLAWIREIYREIFATTGGVPVPDDRTEGTFINYPDVDLVDERWNTSGVPWYTLYYKGNYPRLQKVKARWDPRDVFRHALSVRPPG	soluble
